Assay results taken from PMC10178869.

T1: E. coli Aquaporin Z (AqpZ) (E. coli), P60844
T1 chain: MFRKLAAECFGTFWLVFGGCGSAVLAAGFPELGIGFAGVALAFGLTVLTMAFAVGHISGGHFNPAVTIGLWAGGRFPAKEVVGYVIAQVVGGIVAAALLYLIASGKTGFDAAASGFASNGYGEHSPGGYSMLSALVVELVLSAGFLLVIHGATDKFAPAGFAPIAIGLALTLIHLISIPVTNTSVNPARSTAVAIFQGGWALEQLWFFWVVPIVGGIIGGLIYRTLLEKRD


How the values were obtained:
[1] = molecular target: AqpZ nanodiscs (AqpZ, MSP1E3D1 and DOPC/POPG 4:1) (E. coli | not stated) (UniProt P60844); experiment: mass photometry; 10 nM AqpZ nanodiscs in TEN buffer (300 mM NaCl); nanodisc with nanodisc
[2] = molecular target: T1, E. coli Aquaporin Z (AqpZ) (E. coli), …; experiment: SDS-PAGE with or without heating; purified AqpZ nanodiscs (ND) or AqpZ in OG micelles, heated to 70 °C or unheated; settings: remark: other sources report otherwise

Row | stoichiometry N [1] | stoichiometry N [2] | Molecule
1 | 2 | – | AqpZ nanodiscs (AqpZ, MSP1E3D1 and DOPC/POPG 4:1) (from UniProt P60844 1-231) (complex)
2 | – | 4 | E. coli Aquaporin Z (AqpZ), P60844 1-231 (natural protein) MFRKLAAECFGTFWLVFGGCGSAVLAAGFPELGIGFAGVALAFGLTVLTMAFAVGHISGGHFNPAVTIGLWAGGRFPAKEVVGYVIAQVVGGIVAAALLYLIASGKTGFDAAASGFASNGYGEHSPGGYSMLSALVVELVLSAGFLLVIHGATDKFAPAGFAPIAIGLALTLIHLISIPVTNTSVNPARSTAVAIFQGGWALEQLWFFWVVPIVGGIIGGLIYRTLLEKRD
